These results are taken from the DeepSol protein solubility set.

A short description of the series: soluble on expression in E. coli; label from the status in PepcDB or PDB records.
As to “MGSDKIHHHHHHACKNKTGGPATASSELTDDALMDTVQRRTFLYFWEGAEPNSGLAPERYHVDGVYPQNDANVVTSGGSGFGIMAILAGIDRGYVTREEGLARMERIVSFLEKADRFHGAYPHWWYGDTGKVKPFGQKDNGGDLVETAFLMQGLLAVHQYYINGNEKEKALAARIDQIWKDVDWNWYRNGDQNVLYWHWSPTYGWEMDFPIHGYNECMIMYILAAASPTHGVPAAVYHDGWAQNGAIVSPHKVEGIELHLRYQGTEAGPLFWAQYSFLGLDPVGLKDEYCPSYFHEMRNLTLVNRAYCIRNPKHYKGFGPDCWGLTASYSVDGYAAHSPNEQDDKGVISPTAALSSIVYTPEYSMQVMRHLYNMGDTVFGPFGFYDAFSETDNWYPQRYLAIDQGPIAVMIENYRTGLLWKLFMSHPDVQAGLTKLGFNTNKQDVRQK”, the “soluble on expression in E. coli” value is “not soluble”.
The entry for “MWESKFVKEGLTFDDVLLVPAKSDVLPREVSVKTVLSESLQLNIPLISAGMDTVTEADMAIAMARQGGLGIIHKNMSIEQQAEQVDKVKRSESGVISDPFFLTPEHQVYDAEHLMGKYRISGVPVVNNLDERKLVGIITNRDMRFIQDYSIKISDVMTKEQLITAPVGTTLSEAEKILQKYKIEKLPLVDNNGVLQGLITIKDIEKVIEFPNSAKDKQGRLLVGAAVGVTADAMTRIDALVKASVDAIVLDTAHGHSQGVIDKVKEVRAKYPSLNIIAGNVATAEATKALIEAGANVVKVGIGPGSICTTRVVAGVGVPQLTAVYDCATEARKHGIPVIADGGIKYSGDMVKALAAGAHVVMLGSMFAGVAESPGETEIYQGRQFKVYRGMGSVGAMEKGSKDRYFQEGNKKLVPEGIEGRVPYKGPLADTVHQLVGGLRAGMGYCGAQDLEFLRENAQFIRMSGAGLLESHPHHVQITKEAPNYSL” is “not soluble”; for “MGFFSSLSSLFGLGKKDVNIVVVGLDNSGKTTILNQLKTPETRSQQIVPTVGHVVTNFSTQNLSFHAFDMAGQMKYRSTWESYFHSSQGVIFVLDSSDRLRMELLKDELMMVMEHKDVVSRGIPIVILANKMDIPGAMTASDITVALGLNLYRSGTWSIHSTCALTGDGLDKAMQQLSAEITKYMESRRT” it is “not soluble”; for “MSLCGIAGTLNSSCFSSKKLLAALAHRGPSGHGEFSHQGVNLFHARLSIQDLSPAGAQPMHRHHLSIVFNGEIYNHLELRAKVADYPFSTRSDTETILALFERFGERSLEWMDGMFALAILDQRTHKLFLARDRMGKKPLFYYQEGEEFLFASELNALLTLKPLQIDHAKLSAFLRCGFFPHDGAPYQGVQSLPQGSYAFIDLHHPRPLSPQRYFDLLSLYQAPKIEGFEASKEAVELALKESVKNRLESSDLEVGSFLSGGIDSSLITALASFFTPKLKTFTVAFEGAYDESSLAELVAKRYKTDHTTLHLNPSKLKEEVKGILACYGRPFMDSSAIPSYYVSQEAKKHLTVILNGDGADELFGGYRRYVPMSHGWLKLARPLSLLLPLLPLPKEKKSLYNYLHRLLAMSRKRGLDFYLSATIDSFEDAYAFSPNPHTQTLDQEITQILEDSSLSSLSKMLYLDSQNLLLSDLLPKMDIATMAHSLEGRSPFLGKSLLEVAPRIKDEYKIFGKSTKFILRELAKKYLPHALLEQPKRGFEVPLRAWVEGELKELIFDSLSKNCLSRELIESRFVDALLDKPQDFAPEKRAKMLWSLFSLEVWHEHYQKACEEGHHHHHH” it is “soluble”.
The entry for “MRGKNTGKQRRSIKKQQTVAELKHLFDAPGRGSVMPRQVLWGDLCLTAFPHELNSESTAPMHRYILLSIIRIPLPLTLESQRSLTLVKRCFRRSSVLSSTLYSRLGSTTF” is “not soluble”; for “MSLGENVEFKEFLGNFHLKEGRFRQLACQMNHRIIMGKGVALYVVGVSDSGEIKGIDENKFSETIEVLKKLATEIEAEVSSVERHEVNGGYVGLVEIRKTKAKEHILVGTAGHVDHGKSTLVGCLITGKPDDGDGATRVYLDVLKHEIERGLSAEISFAVFGYKDGKVLRMKNPLSKAEKAMVVETADKLVSFVDTVGHEPWLRTTIRGLLGQKVDYGLLVVAANDGVMRTTKEHLGIMLAMDLPVIVAVTKADMVDDARLSEVLQEISATLRRVGRVPTVLKSRHDARKAAEMVKSNKLLVPVVITSAVTLEGYDILEEIFLHLPKRYTADEDFLMYIDKIYSVTGVGTVVSGSVKSGELAEGDEVYIGPFQDGSFRRVRIQSIEMHHYRIDRAKAGDIIGAAVKGVRYDELRRGMVISRKEPRAVWEFDAEIYVFTHPTLISVGYEPVMHVETISETVTFVEMDKEYLKPGDRGIVRMKFKYHPHFVYEGQKFIFREGRSKGMGEIIRVFEGHHHHHH” it is “soluble”; for “MGSDKIHHHHHHMRKDISTNDKDINDLFLKVVDLVTQARERVATAINIAEVFTKFHIGQYIVEYEQKGETRAEYGKAVLKELSKRLTDRLGDGWSYSTLKNIRQFYIVFSKGLTSGCPKSSQKANQWLADYSKAEEHISEPTFALSWSHYLILMRVENPDARSFYEIECTQQQWSKRQLSRQVGSCLYERLALSRNKDEVMRLAKEGQTIGKPSDIIKNPITLEFLGLKPDAVYSESKLENAIINKMQQFLLELGKGFLFEARQKRFTFDEQHFFVDLVFYNRLLQCYVLIDLKIDKLTHQDLGQMQMYVNYYDRYVKQDFEKPTIGILLCKEKNDALVELTLPKDANIYASAYQLYLPNKALLQAKVKEWIEEFEENEELKKLEENE” it is “not soluble”.
Next, “ADDPIRMYFEPGHYTVMENCGEFEVRVVRRGDISTYASVEYETQDGTASAGTDFVGRKGLLSFPPGVDEQRFRIEVIDDDVFEEDECFYIRLFNPSEGVKLAVPMIATVMILDDDHAGIFAFTDSVFEITESVGRFE”: “soluble”; “GKDDDNVETGAFDPSKPVAISDFTPKEGGAYQKLLIYGENFGTDVSKVKVKIGGKDAIVINVKSTYVYCFVPSGAFSGEIEITVGEGENAVTTTASTTFSYEKKMVVGTLCGYRNNRDDQGWRDGPFDGPEGVKCCGFSDNGRLAFDPLNKDHLYICYDGHKAIQLIDLKNRMLSSPLNINTIPTNRIRSIAFNKKIEGYADEAEYMIVAIDYDGKGDESPSVYIIKRNADGTFDDRSDIQLIAAYKQCNGATIHPINGELYFNSYEKGQVFRLDLVDYFKTIKNGGSWDPIVKNNPNTFKQLFTIADPSWEFQIFIHPTGKYAYFGVINNHYFMRSDYDEIKKEFITPYNFVGGYKQSGYRDDVGTEARMNNPCQGVFVKNPDYTGEEEYDFYFVDRLNFCVRKVTPEGIVSTYAGRGASTSLADGNQWGTDDGDLREVARFRDVSGLVYDDVKEMFYVHDQVGHTIRTISMEQEENVAGDENIPEDESTVESNE”: “soluble”; “MGSDKIHHHHHHMANSGQIRVGIGGWNFEPWEGTFYPDDLPKKRQLEFAGKELRTIEVNGTYYSSQKPATFAKWAAEVPDGFIFSLKASRFVTNRRVLSEAGESMERFLTQGLTELGDRLGPILWQFAPTKKFDAEDFEGFLKLLPEKQDGLKLRHVVEVRNPSFQVPDFVKLIEKYKVAVVLAEHADYPMIADVTGDFVYARLQKGSDEVKTCYPPKDLDRWAERLKTFAAGGEPDDLEKAAPERQPETAPRDVFAFFITSGKVNAPNGARELQKRVG”: “not soluble”.
For the sequence “RKIFTNKCERAGCRQREMMKLTCERCSRNFCIKHRHPLDHDCSGEGHPTS”, the “soluble on expression in E. coli” value is “soluble”.
The entry for “MKIEKTSNFAPINLLYKKKTSFNSRGIFLIIAFNNSSFNLIYKNNNKSYKSTRLNTILRKKNRVIEQVLDKDIIVVPLGGLGEIGMNCMLIGSKKRFILIDCGIMFTDLSHLGIQKVIPDINFLTHIQNLIEGLIITHGHEDHIGAINWVLPILRTDALVYTSRFVYNIISKRIDKQNYLFKKLFRIFDLKKRFQLGPFECEAFRVTHSIPDCCGFVIRSKYGLIVHTGDWKIDEFPLDGEKFDREFLESISKEKVLLMMSDSTNSLSHGRTASEKVVQDSLVSIITNPKIKGRIITTQFASNVFRLYSIKKAADISKKKICFLGTSLNSYLDASLLDGRAPFHPSELVQESELKNIDPDKIIIVTTGSQGEARSTLNLSSLDLSPRLSLNPYDTIIYSAKIIPGNDKKVVRMLNRISSHGCKIIYGNQAKIHTSGHAYEDELKEILKIVKPSYFLPVHGELISLNVHSSIALQNCGIKNTIVMRNGQVLSLESDNQNPLGFKLFNLSGEINLVNHYNTGSSILGSYADIGISDKIKISNEGIILISLEFVRIKESDTYVSFKSKLRISSRGIWIDRGKLNFIIKKLLFNILNKCRTNISIISLEQIISETMNYSCYKINRSNPEIIVYANELTNI” is “soluble”; for “GPGSMLRRLGSTLFCSVTLANGTVLKGDLNPHNPSLLLKGITILPDGRVYSGSYDATSGFPLPGSQLEEDGDLYRGDFNTQWQREGRGEAWLADGTHYAGVFKNDEITEGIVRIPNGTTEVVFEGTLSDEAFVKGKLTQSDFVYEGEFSDNEPHGKGKLVFATGAVQEGTFFHGKLHGPDCKMKLDGGFVYVGEFLDGQIRRGTLYTPTYTYEGEFNEHGRAQGEGTQTYLINEPRLTFTGIWTNGALVRGVCMDEYGSAVDWQNNDELQAKVLGGATGKGSESVGLNSYCSARMKEAAQLHSDMQRSYAEDAEAVAQSTGRFPTKMDLGYEGSIAHENEAVMQAQQRQMQDIERSKEVLSDRARDFGPIASGSRGNIIGEIDENMARIQFRRQVGAEEVSAARVDEQFERFMKSFKKPSPLPGAPAQVAQKLNIDGNAPWKAFTPLK” it is “soluble”; for “GMSDHVCQEGCRHHSHGEDSPEIQQEFQEGRRDFMRDFAVGGVLASAASLGISSSAFGQTMPKTGLTSGHATHYYIPASDKTVSWGFFSKSLKPVVELESGDFATIETLTHHSNDDASLMVKGDPGAESVFYWDSKRKNVDRRGMGPMDHKLGAGGGMGVHILTGPVAIKGAEPGDVLEVRIVDVALRPSANPEFKGKTFGSNVAANWGFHYNELIEEPKKREVVTIYELDATGERNWARAFYNYRWTPQKDPFGVVHPIVDYPGVPVDHSTISKNYNVLKNIRVPVRPHFGTMGLAPKEADLVNSVPPSHFGGNIDNWRIGKGATMYYPVSVAGGLFSVGDPHASQGDSEMCGTAIECSLTGTFQFILHKKADLPGTPLADLQYPLLETQDEWVLHGFSYANYLAELGPDAQNSIFSKSSLDLALKDAFRKMRHFLMQTQNLTEDEAVSLMSIGVDFGITQVVDGNWGVHAVVKKGIFPGRDV” it is “soluble”.
Next, “MAHHHHHHMFANLDEEKKARLRERILQAAAAPPPAATPARSNSDSDGEQEVPPQHTESTKHASEQLAINAQSTDIDIANIRLFTLDELDLNQLTECKTLSLRKNLIHELSAFPQHLAGRLVELDLFDNKIRKVRDFFDSAMVPDPESGSLSKKAVPHAFYSLTKLDLSYNQLRKITGLDSLGSTLKELYLVENKIKVIEGLDSFVHLELLELGGNRIREIGSGLSNLRSLQSLWLGKNKIHSIGDSLHNLRELRKLSLQANRLTSITAEAFKEGCNPYLAELYLSENGISTIENLPLHSLHLLDFSFNPISTINEAVINPTNMPELEEFWLTDGSISDWGEVKKFCGFANTLRTIYVERNPIEQDKRYRDKVYMNLPFVTQIDSWPVVNKDNLEGDRLIQRRAS”: “not soluble”.
On to “SKYGLQDSDEEEEEHPSKTSTKKLKTAPLPPASQTTPLQMALNGKPAPPPQVEKKGQLEHHHHH”, for which the “soluble on expression in E. coli” value is recorded as “soluble”.
